Experimental findings from paper PMC8276696 (2021) are described below.

In the experiment the target is wild-type monomeric SARS-CoV-2 S receptor-binding domain (RBD) (SARS-CoV-2 (Wuhan-Hu-1), UniProt P0DTC2). As to the kind of experiment: BLI.

B1: CV30 IgG (antibody, V domains shown)
VH: QVQLVESGGGLIQPGGSLRLSCAASGVIVSSNYMSWVRQAPGKGLEWVSVIYSGGSTYYADSVKGRFTISRDNSKNTLYLQMNSLRAEDTAVYYCARDLDVSGGMDVWGQGTTVTVSS
VL: not shown
For B1, the Kd amounted to 8.8 nM.

In general, Kd refers to the free concentration of one partner at which half of the binding sites on the other are occupied at equilibrium, for simple one-to-one binding. High values mean lower affinity, low ones higher affinity.
